The target of this experiment is T1, human CD39 naturally expressed on MOLP-8 cells (human, UniProt P49961 1-510).
T1 construct: whole, on cells; also called CD39 antigen; CD39 protein
T1 sequence (looked up): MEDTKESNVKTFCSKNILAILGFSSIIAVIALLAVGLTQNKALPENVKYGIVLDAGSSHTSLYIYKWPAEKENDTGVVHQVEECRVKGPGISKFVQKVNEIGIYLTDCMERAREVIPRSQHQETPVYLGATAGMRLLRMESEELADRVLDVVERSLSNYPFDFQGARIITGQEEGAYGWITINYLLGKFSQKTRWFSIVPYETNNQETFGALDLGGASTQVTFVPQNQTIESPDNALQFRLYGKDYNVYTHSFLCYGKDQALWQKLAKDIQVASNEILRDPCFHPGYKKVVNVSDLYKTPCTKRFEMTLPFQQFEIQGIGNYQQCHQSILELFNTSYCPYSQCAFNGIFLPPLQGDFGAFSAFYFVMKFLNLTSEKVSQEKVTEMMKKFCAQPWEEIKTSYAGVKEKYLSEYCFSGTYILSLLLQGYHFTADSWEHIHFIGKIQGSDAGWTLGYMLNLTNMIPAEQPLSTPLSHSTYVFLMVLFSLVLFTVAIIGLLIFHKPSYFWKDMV
In words: flow cytometry on MOLP-8 cells, FITC goat anti-human H+L secondary antibody. (In general: In flow cytometry, cells or beads pass a laser one at a time.)

One molecule from patent US20250049941A1, “ANTI-CD39 Antibody-Drug Conjugate And Use Thereof” (priority 2021, published 2025) can be followed below.

B1: humanized monoclonal antibody F314 (antibody, human IgG4 S228P, kappa, V domains shown)
VH: QVQLVQSGAEVKKPGASVKVSCKASGYTFTNYWMYWVRQRPGRGLEWIGRIAPSSGATKYNEKFKNRATLTVDTSISTAYMELSRLRSDDTAVYYCARSGIYYDYDWFFDVWGQGTTVTVSS
VL: DIQMTQSPSSLSASVGDRVTITCKASQDINKYIGWYQQKPGKAPKLLIHYTSTLQPGVPSRFSGSGSGRDYTFTISSLQPEDIATYYCLQYHALLFTFGQGTKLEIKR
notes: Expressed in CHO-S cells; also called F314 monoclonal antibody; naked antibody
Take B1: the binding result is recorded as “binds”.
